The target in the assay is recombinant GST-tagged TgNF3 (Toxoplasma gondii nuclear factor 3) (T. gondii). In words: pull-down.

Consider 1 substance from article PMC3068996.

For “purified core histones from HeLa cells (H3, H4, H2A/H2B) (from UniProt P68431 1-136; P62805 1-103; P0C0S8 1-130; P62807 1-126) (complex)”, the percent of input bound was 25%.
